We go through one molecule from patent publication US20190144558A1.

In this assay the target is purified human CD117 ectodomain (R&D Systems #332-SR) (human) (UniProt P10721). Description: BLI (Octet Red96), IgG on anti-human Fc sensors, human CD117 ectodomain at 33.3 and 11 nM, 1:1 fit. (BLI is a label-free optical method that tracks binding on a fibre tip over time.)

B1: Antibody 61 (antibody, human IgG1, kappa, V domains shown)
VH: EVQLLESGGGLVQPGGSLRLSCAASGFTFSSYVMIWVRQAPGKGLEWVSSISGDSVTTYYADSVKGRFTISRDNSKNTLYLQMNSLRAEDTAVYYCAKGPPTYHTNYYYMDVWGKGTTVTVSS
VL: DIQMTQSPSSVSASVGDRVTITCRASQGISSWLAWYQQKPGKAPKLLIYAASSLQSGVPSRFSGSGSGTDFTLTISSLQPEDFATYYCQQTNSFPYTFGGGTKVEIKR
B1: the dissociation constant Kd (commonly the equilibrium constant for the complex coming apart) came out at 24.9 nM; the koff (in general, the rate constant with which the complex falls apart) worked out at 0.00533 s⁻¹; the kon (usually the second-order rate constant of association) was found to be 214000 M⁻¹ s⁻¹.
